Source: paper PMC3679036

Columns and labels:
[1] = molecular target: RhoA (UniProt Q9QUI0); assay: anti-RhoGDI1 co-IP from cytosolic fraction; settings: reference: unstimulated acini; sites S96
[2] = molecular target: RhoA (UniProt Q9QUI0); assay: anti-RhoGDI1 co-IP from acinar lysate; settings: reference: unstimulated acini; sites S96

percent of reference [1] [%] | percent of reference [2] [%] | Substance
42 |  | RhoGDI1 (endogenous) (from UniProt Q99PT1) CCK 300 pM, 5 min
 | 37 | RhoGDI1 (endogenous) (from UniProt Q99PT1) PMA 500 nM
